Columns and labels:
[1] = molecular target: Avi-tag biotinylated RBD of SARS-CoV-2 S protein (SARS-CoV-2, UniProt P0DTC2); experiment: flow cytometry on cells; details: both partners purified
[2] = molecular target: SARS-CoV-2 RBD, His6-tagged, for biolayer interferometry (SARS-CoV-2, UniProt P0DTC2); experiment: BLI; details: both partners purified

B1: 47D1 IgG (antibody, V domains shown)
VH: QVQLVQSGAEVKKPGSSVRVSCKASGGTFSTYPISWVRQAPGQGLEWMGGIIPIFGTAKSAQKFQGRVTITADEFTSTAYMEMSSLRSEDTAMYYCAREGRRYGSGWYISTGYFDYWGQGTLVTVSS
VL: QLVLTQPASVSGSPGQSIIVSCTGTSSDVGGYKFVSWYQQHPGKAPRVMIYDVSNRPSGVSNRFSGSKSGNTASLTISGLQADDEADYYCSSYTNSSTVVFGGGTKVTVL
**Q.** What does the source list for B1?
**A.** binding result [1]: binds; binding result [2]: binds

Reference: PMC8064889 (Cell Reports, 2021)
